Measured values taken from CN111995685A (SHANGHAI INST MATERIA MEDICA CAS; UNIV XIAMEN, dated 2020).

Tests used:
[1] = molecular target: T1, 抗原人源PD-1蛋白 (human, UniProt Q15116 25-167, limits assumed); assay: ELISA of humanised Fab phage clones on PD-1 antigen
T1 construct: The construct is not described; also called 抗原PD-1; 抗原PD-1蛋白

[2] = molecular target: T1, 抗原人源PD-1蛋白; assay: ELISA (binding and PD-L1 blocking) and BLI with PD-1 antigen, IgG format

T1 sequence (Q15116 25-167 limits assumed): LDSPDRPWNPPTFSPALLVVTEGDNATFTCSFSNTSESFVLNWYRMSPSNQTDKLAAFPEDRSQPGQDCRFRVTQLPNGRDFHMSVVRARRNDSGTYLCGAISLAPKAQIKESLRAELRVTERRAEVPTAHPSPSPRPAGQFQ

Binder | binding result [1] | binding result [2]
T1# (antibody, V domains shown, also called 抗PD-1单抗T1#; 人源化PD-1抗体T1#) VH: not shown VL: EIVLTQSPGTLSLSPGERATLSCRASKSVDNYGYSFMHWYQQKPGQAPRLLIYRSANLASGVPSRFSGSGSGTDFTLTINSLEAEDAATYYCQQSNEDPTFGGGTKVEIK | binds | –
T82# (antibody, V domains shown, also called 抗PD-1单抗T82#) VH: not shown VL: DIQMTQSPSTLSASVGDRVTISCRASKSVDNYGYSFMHWYQQKPGQAPRLLIYRSANLASGVPDRFSGSGSGTDFTLTISSLQAEDVAVYYCQQSNEDPTFGGGTKLEIK | – | binds
T16# (antibody, V domains shown, also called 抗PD-1单抗T16#) VH: not shown VL: ETTLTQSPAFMSATPGDKVNISCRASKSVDNYGYSFMHWYQQKPGQAPRLLIYRSANLASGVPDRFSGSGSGTDFTLKISRVEAEDVGVYYCQQSNEDPTFGGGTKLEIK | – | binds
